One data set concerns the target T1, FANCM CTD;FAAP24 (human?;human?, UniProt Q8IYD8;Q9BTP7 1799-2048;1-215, |).
T1 sequence 1: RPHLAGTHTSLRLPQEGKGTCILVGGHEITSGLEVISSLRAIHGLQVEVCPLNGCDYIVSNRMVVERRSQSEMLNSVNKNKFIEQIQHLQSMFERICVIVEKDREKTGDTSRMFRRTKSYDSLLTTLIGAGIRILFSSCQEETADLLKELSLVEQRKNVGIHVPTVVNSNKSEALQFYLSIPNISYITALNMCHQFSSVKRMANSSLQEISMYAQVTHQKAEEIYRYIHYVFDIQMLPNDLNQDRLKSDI
T1 sequence 2: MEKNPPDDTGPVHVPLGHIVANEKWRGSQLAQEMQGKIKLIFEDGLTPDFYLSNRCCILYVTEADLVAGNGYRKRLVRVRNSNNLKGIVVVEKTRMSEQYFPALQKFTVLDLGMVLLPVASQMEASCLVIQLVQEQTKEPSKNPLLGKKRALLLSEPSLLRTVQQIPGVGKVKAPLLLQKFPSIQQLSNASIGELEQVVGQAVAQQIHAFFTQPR
As to the kind of experiment: X-ray crystallography.

The target of data set [1] is T2, FANCM C-terminal fragment (FANCMCTD), residues 1,799-2,048 (human, UniProt Q8IYD8 1799-2048).
T2 sequence (looked up): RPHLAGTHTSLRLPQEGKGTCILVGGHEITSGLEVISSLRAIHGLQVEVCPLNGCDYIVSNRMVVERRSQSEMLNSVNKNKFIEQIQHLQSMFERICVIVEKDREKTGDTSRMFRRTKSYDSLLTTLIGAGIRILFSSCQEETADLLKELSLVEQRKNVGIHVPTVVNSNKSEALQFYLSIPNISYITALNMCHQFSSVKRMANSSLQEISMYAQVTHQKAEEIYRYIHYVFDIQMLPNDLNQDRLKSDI
As to the kind of experiment: crystal structure.

Data set [2] addresses full-length FANCM (N-terminal Flag-tag, C-terminal 8His-tag) (human, UniProt Q8IYD8 1-2048). As to the kind of experiment: negative-stain single particle electron microscopy.

B1: 11 bp crystallization duplex (dsDNA)
DNA 1: GATGATGCTGA
DNA 2: TCAGCATCATC
On to B1, for which, in the data set with FANCM CTD;FAAP24, the binding result was “binds”.

B2: FAAP24 (full length), partner in the FANCMCTD-FAAP24 complex (natural protein, human, UniProt Q9BTP7 1-215, looked up)
chain: MEKNPPDDTGPVHVPLGHIVANEKWRGSQLAQEMQGKIKLIFEDGLTPDFYLSNRCCILYVTEADLVAGNGYRKRLVRVRNSNNLKGIVVVEKTRMSEQYFPALQKFTVLDLGMVLLPVASQMEASCLVIQLVQEQTKEPSKNPLLGKKRALLLSEPSLLRTVQQIPGVGKVKAPLLLQKFPSIQQLSNASIGELEQVVGQAVAQQIHAFFTQPR
Regarding B2, the binding result in data set [1] was “binds”.

B3: FAAP24, untagged, co-expressed with full-length FANCM (natural protein, human, UniProt Q9BTP7 1-215, looked up)
chain: MEKNPPDDTGPVHVPLGHIVANEKWRGSQLAQEMQGKIKLIFEDGLTPDFYLSNRCCILYVTEADLVAGNGYRKRLVRVRNSNNLKGIVVVEKTRMSEQYFPALQKFTVLDLGMVLLPVASQMEASCLVIQLVQEQTKEPSKNPLLGKKRALLLSEPSLLRTVQQIPGVGKVKAPLLLQKFPSIQQLSNASIGELEQVVGQAVAQQIHAFFTQPR
In the case of B3, the binding result in data set [2] is given as “binds”.

The values above are taken from PMC3763369 (Structure(London, England:1993), 2013).
